The data set deals with the molecule itself. The experiment in a line: SEC-HPLC with light scattering, self-association (homodimer).

B1: recombinant human heparan N-sulfatase (rhHNS), mature form (enzyme)
chain: RPRNALLLLADDGGFESGAYNNSAIATPHLDALARRSLLFRNAFTSVSSCSPSRASLLTGLPQHQNGMYGLHQDVHHFNSFDKVRSLPLLLSQAGVRTGIIGKKHVGPETVYPFDFAYTEENGSVLQVGRNITRIKLLVRKFLQTQDDRPFFLYVAFHDPHRCGHSQPQYGTFCEKFGNGESGMGRIPDWTPQAYDPLDVLVPYFVPNTPAARADLAAQYTTVGRMDQGVGLVLQELRDAGVLNDTLVIFTSDNGIPFPSGRTNLYWPGTAEPLLVSSPEHPKRWGQVSEAYVSLLDLTPTILDWFSIPYPSYAIFGSKTIHLTGRSLLPALEAEPLWATVFGSQSHHEVTMSYPMRSVQHRHFRLVHNLNFKMPFPIDQDFYVSPTFQDLLNRTTAGQPTGWYKDLRHYYYRARWELYDRSRDPHETQNLATDPRFAQLLEMLRDQLAKWQWETHDPWVCAPDGVLEEKLSPQCQPLHNEL
notes: In the immunohistochemistry it was detected in fixed monkey tissue after intrathecal dosing; also called sulfamidase; human HNS
For the protein B1, the binding result is “binds”.
